Measured values: patent KR20200144536A (dated 2020)

T1: 재조합 hAng-2 (C-His, R&D Systems) (human, UniProt O15123 19-496)
T1 construct: Bought protein; also called 인간 Ang-2 단백질; not shown: C-terminal His tag
T1 sequence: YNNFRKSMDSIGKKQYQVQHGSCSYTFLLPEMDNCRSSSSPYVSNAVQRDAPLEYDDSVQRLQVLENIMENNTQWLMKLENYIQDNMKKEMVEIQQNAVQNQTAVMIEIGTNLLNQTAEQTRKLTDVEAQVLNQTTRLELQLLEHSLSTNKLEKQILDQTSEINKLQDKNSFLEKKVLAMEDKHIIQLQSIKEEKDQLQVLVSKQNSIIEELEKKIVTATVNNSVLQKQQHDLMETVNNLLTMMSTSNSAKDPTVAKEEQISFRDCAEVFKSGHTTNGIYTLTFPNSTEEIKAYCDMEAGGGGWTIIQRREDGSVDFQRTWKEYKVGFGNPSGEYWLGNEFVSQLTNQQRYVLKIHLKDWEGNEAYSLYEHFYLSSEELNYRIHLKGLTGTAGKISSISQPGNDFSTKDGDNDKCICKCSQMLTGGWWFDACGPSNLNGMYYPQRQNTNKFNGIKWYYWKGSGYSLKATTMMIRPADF


What was measured:
hTie2-Fc (R&D Systems) = molecular target: T2, hTie2-Fc (R&D Systems) (human, UniProt Q02763 23-745); assay: Complex ELISA: coated Tie2-Fc (4 ug/ml), 0.25 ug/ml Ang2 and 2 ug/ml 10D6, anti-mouse IgG-HRP, OD450
T2 construct: Bought fusion protein; neither the Tie2 range nor the linker is stated; also called hTie-2/Fc 융합 단백질; not shown: Fc of human IgG1

[1] = molecular target: Mutant Ang2 A449 (알라닌 치환), FLAG-tagged (human) (UniProt O15123); assay: ELISA, coated antibody (1000 nM), 250 ng FLAG-tagged mutant Ang2, anti-FLAG-HRP, OD450
[2] = molecular target: Mutant Ang2 D448 (알라닌 치환), FLAG-tagged (human) (UniProt O15123); assay: as above
[3] = molecular target: Mutant Ang2 F469 (알라닌 치환), FLAG-tagged (human) (UniProt O15123); assay: as above
[4] = molecular target: Mutant Ang2 I434 (알라닌 치환), FLAG-tagged (human) (UniProt O15123); assay: as above
[5] = molecular target: Mutant Ang2 K468 (알라닌 치환), FLAG-tagged (human) (UniProt O15123); assay: as above
[6] = molecular target: Mutant Ang2 N421 (알라닌 치환), FLAG-tagged (human) (UniProt O15123); assay: as above
[7] = molecular target: Mutant Ang2 N467 (알라닌 치환), FLAG-tagged (human) (UniProt O15123); assay: as above
[8] = molecular target: Mutant Ang2 P419 (알라닌 치환), FLAG-tagged (human) (UniProt O15123); assay: as above
[9] = molecular target: Mutant Ang2 P452 (알라닌 치환), FLAG-tagged (human) (UniProt O15123); assay: as above
[10] = molecular target: Mutant Ang2 Q418 (알라닌 치환), FLAG-tagged (human) (UniProt O15123); assay: as above
[11] = molecular target: Mutant Ang2 S417 (알라닌 치환), FLAG-tagged (human) (UniProt O15123); assay: as above
[12] = molecular target: Mutant Ang2 Y460 (알라닌 치환), FLAG-tagged (human) (UniProt O15123); assay: as above
[13] = molecular target: T1, 재조합 hAng-2 (C-His, R&D Systems); assay: SPR, BIAcore T100; hAng-2 (C-His) captured on an anti-His CM5 chip, antibody flowed from 100 nM in 2-fold dilutions

T2 sequence (Q02763 23-745 limits assumed): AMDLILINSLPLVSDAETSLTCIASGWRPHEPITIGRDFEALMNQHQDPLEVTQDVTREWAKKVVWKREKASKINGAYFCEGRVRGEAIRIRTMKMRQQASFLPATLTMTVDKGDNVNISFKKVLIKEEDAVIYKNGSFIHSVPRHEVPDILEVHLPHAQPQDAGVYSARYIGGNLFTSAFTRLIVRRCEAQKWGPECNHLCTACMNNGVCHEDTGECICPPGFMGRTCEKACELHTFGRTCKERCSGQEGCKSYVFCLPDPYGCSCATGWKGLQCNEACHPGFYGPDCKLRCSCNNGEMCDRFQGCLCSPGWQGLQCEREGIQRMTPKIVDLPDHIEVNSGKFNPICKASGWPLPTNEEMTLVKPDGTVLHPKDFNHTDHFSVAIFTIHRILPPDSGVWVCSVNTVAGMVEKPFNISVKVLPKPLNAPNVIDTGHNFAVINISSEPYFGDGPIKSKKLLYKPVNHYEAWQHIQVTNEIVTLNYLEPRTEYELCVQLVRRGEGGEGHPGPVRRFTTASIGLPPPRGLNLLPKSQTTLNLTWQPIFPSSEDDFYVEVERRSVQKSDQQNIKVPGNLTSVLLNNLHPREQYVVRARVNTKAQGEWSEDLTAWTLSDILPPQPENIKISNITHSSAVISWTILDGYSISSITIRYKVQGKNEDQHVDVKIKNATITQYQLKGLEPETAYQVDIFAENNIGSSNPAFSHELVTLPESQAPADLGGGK

Row | binding result (hTie2-Fc (R&D Systems)) | binding to Mutant Ang2 relative to native Ang2 (%) [1] [%] | binding to Mutant Ang2 relative to native Ang2 (%) [2] [%] | binding to Mutant Ang2 relative to native Ang2 (%) [3] [%] | binding to Mutant Ang2 relative to native Ang2 (%) [4] [%] | binding to Mutant Ang2 relative to native Ang2 (%) [5] [%] | binding to Mutant Ang2 relative to native Ang2 (%) [6] [%] | binding to Mutant Ang2 relative to native Ang2 (%) [7] [%] | binding to Mutant Ang2 relative to native Ang2 (%) [8] [%] | binding to Mutant Ang2 relative to native Ang2 (%) [9] [%] | binding to Mutant Ang2 relative to native Ang2 (%) [10] [%] | binding to Mutant Ang2 relative to native Ang2 (%) [11] [%] | binding to Mutant Ang2 relative to native Ang2 (%) [12] [%] | Kd [13] [nM] | Binder
1 | binds |  |  |  |  |  |  |  |  |  |  |  |  |  | Ang2 단백질(R&D systems) (ligand) YNNFRKSMDSIGKKQYQVQHGSCSYTFLLPEMDNCRSSSSPYVSNAVQRDAPLEYDDSVQRLQVLENIMENNTQWLMKLENYIQDNMKKEMVEIQQNAVQNQTAVMIEIGTNLLNQTAEQTRKLTDVEAQVLNQTTRLELQLLEHSLSTNKLEKQILDQTSEINKLQDKNSFLEKKVLAMEDKHIIQLQSIKEEKDQLQVLVSKQNSIIEELEKKIVTATVNNSVLQKQQHDLMETVNNLLTMMSTSNSAKDPTVAKEEQISFRDCAEVFKSGHTTNGIYTLTFPNSTEEIKAYCDMEAGGGGWTIIQRREDGSVDFQRTWKEYKVGFGNPSGEYWLGNEFVSQLTNQQRYVLKIHLKDWEGNEAYSLYEHFYLSSEELNYRIHLKGLTGTAGKISSISQPGNDFSTKDGDNDKCICKCSQMLTGGWWFDACGPSNLNGMYYPQRQNTNKFNGIKWYYWKGSGYSLKATTMMIRPADF
2 |  | 97.9 | 105 | 109 | 109 | 110 | 109 | 107 | 41.1 | 102 | 38.9 | 101 | 103 | 8 | SAIT-ANG2-AB-m10D6 (antibody, V domains shown, Mouse monoclonal antibody from a hybridoma (KCLRF-BP-00295), purified on protein G; also called 10D6 항체; 10D6 anti-Ang2 항체) VH: DVQLQESGPGLVKPSQSLSLTCTVTGYSITSDYAWNWIRQFPGNKLEWMGYINYSGNTDYNPSLKSRSSITRDTSKNQFFLQLNSVTTGDTATYYCARGNFEGAMDYWGQGTSVTVSS VL: SIVMTQTPKFLLVSAGDRVTITCKASQSVSNDVAWYQQKPGQSPKLLIYYASNRYPGVPDRFTGSGYGTDFTFTISTVQAEDLAVYFCQQDYSSPWTFGGGTKLEIK
